The text below walks through data of US20160298128A1 (University of California, published 2016).

In assay [1] the target is T1, PsbO1, photosystem II subunit (endogenous protein in Arabidopsis protein extracts) (Arabidopsis thaliana, UniProt P23321 86-332).
T1 construct: Endogenous protein; also called PSII subunit PsbO1
Put plainly: Co-IP with anti-HA magnetic beads from DEX-3 plant extracts, LC-MS/MS. The protocol: Four-day-old seedlings of Col-0 and transgenic plants DEX:AtCV-HA-3 (DEX-3) were cultured in MS/2 media containing […] for 4 days and then kept in the dark for additional 2 days. The shoots of plants were harvested, ground in liquid N2 and incubated at 4° C. for 3 h with lysis buffer provided by μMACS HA Isolation Kit (Miltenyl Biotec, San Diego, Calif., USA), containing Protease Inhibitor Cocktail (Sigma-Aldrich, St. Louis, Mo., USA). Co-immunoprecipitation was performed using anti-HA magnetic beads from μMACS HA Isolation Kit (Miltenyl Biotec, San Diego, Calif., USA) and incubating the cell lysis with beads at 4° C. for 2 h. LC-MS/MS analysis was performed in Genome Center of University California, Davis, as described previously (Shipman-Roston et al. 2010, Plant Physiol 152: 1297-1308). Scaffold (version Scaffold 3) was used to validate MS/MS-based peptide and protein identification. Peptide identifications were accepted if they could be established at >80.0% probability. […]
To elucidate mechanism(s) by which AtCV disrupts chloroplasts, we identified AtCV potential interacting proteins using co-immunoprecipitation (Co-IP) and subsequent identification of interactors by LC-MS/MS (Smaczniak et al. 2012, Nat Protoc 7: 2144-2158). […] In order to confirm this interaction, we used bimolecular fluorescence complementation (BiFC).

Assay [2] deals with T1, PsbO1, photosystem II subunit …. Put plainly: Co-IP with anti-PsbO antibody and Protein A beads, immunoblot with anti-HA. (In western blotting, separated proteins are transferred to a membrane and probed.)

T1 sequence (P23321 86-332 limits assumed): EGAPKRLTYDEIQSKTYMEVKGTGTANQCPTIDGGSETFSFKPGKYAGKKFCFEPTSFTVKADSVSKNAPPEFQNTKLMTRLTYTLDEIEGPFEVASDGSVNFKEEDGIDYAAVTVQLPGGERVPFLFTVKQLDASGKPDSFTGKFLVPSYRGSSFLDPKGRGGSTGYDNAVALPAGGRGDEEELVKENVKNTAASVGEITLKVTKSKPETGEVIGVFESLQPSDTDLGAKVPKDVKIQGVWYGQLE

B1: AtCV-HA (Arabidopsis thaliana chloroplast vesiculation protein, At2G25625, fused to an HA tag; expressed from DEX:AtCV-HA, line DEX-3) (other)
chain: ASLLKTTSKISCRRTENETEPRKNKCSFVLGVAATVVIGGIQINDVASVEAAVVKSPVEEMAAGVVPPRRWSDKRTCPPWLENSLETIVPENLPRPSAHRRLELAGLAKGDAPPVGVVMTRVNRGGCFSV
notes: Expressed in planta after DEX induction; also called DEX:AtCV-HA-3; full length AtCV; not shown: HA tag from vector pBAV 154
In the case of B1, the binding result in assay [1] was “binds”.

B2: AtCVΔC-HA (AtCV without the C-terminus conserved domain, HA tagged; DEX::AtCVΔC-HA plants) (other)
chain: ASLLKTTSKISCRRTENETEPRKNKCSFVLGVAATVVIGGIQINDVASVEAAVVKSPVEEMAAGVVPPR
notes: The making of the construct is not described; not shown: HA tag
On to B2, for which the binding result in assay [2] is “no binding”.
